Data: patent US20200206198A1, “CFTR CHANNEL ACTIVATOR FOR USE IN THE TREATMENT AND/OR PREVENTION OF GLUTEN SENSITIVITY CONDITIONS” (priority 2017, published 2020)

Molecular target: T1, PM-associated CFTR (Homo sapiens, UniProt P13569)
T1 construct: Immunoprecipitations of endogenous proteins were performed on 500 μg of lysates from Caco-2 cells; host or cells: Caco-2, T84
Test: CFTR plasma membrane disposal in Caco-2 cells (membrane fractions)
Assay type: cell-based
Description: Human colon adenocarcinoma-derived Caco-2 and T84 cells were obtained from the ATCC. Cells were maintained in T25 flask in Modified Eagle Medium (MEM) for Caco-2, or Ham's F12+DMEM (1:1) for T84, supplemented with 10% fetal bovine serum (FBS), 2 mM Glutamine+1% Non Essential Amino Acids (NEAA) and the antibiotics penicillin\streptomycin (100 units/ml) (all reagents from Lonza) (Luciani, A., et al. 2010. Cells were grown in Transwells (Corning, 3470 or 3460) under the normal condition (Luciani, A., et al. 2012). Briefly, 8×10^4 or 5×10^5 cells were seeded in 6.5-mm diameter or 12-mm diameter, respectively, and grown until the RT reached 800 to 1,200 Ω·cm2. Transwells with a pore size of 0.4 μm were used. Medium in both the apical and basolateral chambers was changed every other day. Cells were treated with 20 μg/ml of either α-gliadin peptide P31-43 or […] or scrambled PGAV or modified P31-43 either biotin-tagged or not, for different time point (from 1 h short challenge up to 24 h). Cells were also treated with 50 or 100 μg/ml of P57-68 or PGAV peptides for 3 h. Caco-2 or T84 cells were also treated with: CFTR potentiators VX-770 (10 μM) or VX-532 (20 μM) (Selleck chemicals) or Genistein (10 μM) (Sigma-Aldrich) or in presence or absence of CFTR inhibitor172 (CFTRinh172, 20 μM) or 3-methyl-adenine (3-MA, 20 μM) (Calbiochem), Z-DON (20 nM, Zedira) or BAPTA-AM (10 μM, Calbiochem).
The whole lysate or membrane fraction proteins of cell lines and mice intestine homogenates were obtained from treated and untreated cells or mice as described. The equal amount of protein were resolved by SDS-PAGE gel and blotted with antibodies against: SQSTM1, (Sigma Aldrich, 108k4767) 1:1000, PPARγ (Santa Cruz Biotechnology, sc7273) 1:500, BECN1 (Abcam, ab58878) 1:1000, CFTR clone M3A7 (Abcam, ab4067) 1:500, phospho-ERK1/2 (php42/44, Cell Signaling Technology, #91101) 1:1000, UVRAG (Santa Cruz Biotechnology sc8215) 1:1000, NHERF-1 (BD, 611161) 1:1000, EZRIN (BD, 610603) 1:1000, hVps34 (SigmaV9764) 1:300, biotin (Abcam, ab1227) 1:2000, PKAr2a (BD, 610625) 1:500, Ubiquitin (Cell Signaling clone P4D1, #3936) 1:1000, CHIP (Calbiochem PC711) 1:500, Caspase-1 p10 (M-20) (Santa Cruz Biotechnology, sc-514) 1:200, NLRP3 (Abcam, ab4207), 1:500, IDO1 (monoclonal; cv152) 1:1000^[80], used as primary antibodies. Normalization was performed by probing the membrane with anti-β-actin (Cell Signaling, #4970) 1:1000, anti-Gapdh (Sigma-Aldrich, G8795) 1:1000 and anti-flottilin (Abcam ab15148) 1:1000 antibodies. Immunoprecipitations of endogenous proteins were performed on 500 μg of lysates from Caco-2 cells. The proteins were incubated for 12-18 h at 4° C. with 10 ug\ml of specific antibody followed by the addition of Protein A/G-agarose beads for 4 h at 4° C. The beads were then washed three times with lysis buffer and Laemmli's sample buffer was added to the samples. The membranes were then blotted with: CFTR clone CF3 (Abcam, ab2784) 1:1000, TG2 (clone CUB7402; NeoMarkers) 1:1000, CHIP (Calbiochem PC711) 1:500, Ubiquitin (Cell Signaling clone P4D1 3936), isopeptide (Abcam 422) 1:1000, PKAR2 (BD 610625) 1:500.
Protein from membrane fractionation were obtained as described. Cells were homogenized with a PotterElvehjem pestle and centrifuged at 2300×g for 15 min at 4° C. […]

T1 sequence (P13569 whole entry): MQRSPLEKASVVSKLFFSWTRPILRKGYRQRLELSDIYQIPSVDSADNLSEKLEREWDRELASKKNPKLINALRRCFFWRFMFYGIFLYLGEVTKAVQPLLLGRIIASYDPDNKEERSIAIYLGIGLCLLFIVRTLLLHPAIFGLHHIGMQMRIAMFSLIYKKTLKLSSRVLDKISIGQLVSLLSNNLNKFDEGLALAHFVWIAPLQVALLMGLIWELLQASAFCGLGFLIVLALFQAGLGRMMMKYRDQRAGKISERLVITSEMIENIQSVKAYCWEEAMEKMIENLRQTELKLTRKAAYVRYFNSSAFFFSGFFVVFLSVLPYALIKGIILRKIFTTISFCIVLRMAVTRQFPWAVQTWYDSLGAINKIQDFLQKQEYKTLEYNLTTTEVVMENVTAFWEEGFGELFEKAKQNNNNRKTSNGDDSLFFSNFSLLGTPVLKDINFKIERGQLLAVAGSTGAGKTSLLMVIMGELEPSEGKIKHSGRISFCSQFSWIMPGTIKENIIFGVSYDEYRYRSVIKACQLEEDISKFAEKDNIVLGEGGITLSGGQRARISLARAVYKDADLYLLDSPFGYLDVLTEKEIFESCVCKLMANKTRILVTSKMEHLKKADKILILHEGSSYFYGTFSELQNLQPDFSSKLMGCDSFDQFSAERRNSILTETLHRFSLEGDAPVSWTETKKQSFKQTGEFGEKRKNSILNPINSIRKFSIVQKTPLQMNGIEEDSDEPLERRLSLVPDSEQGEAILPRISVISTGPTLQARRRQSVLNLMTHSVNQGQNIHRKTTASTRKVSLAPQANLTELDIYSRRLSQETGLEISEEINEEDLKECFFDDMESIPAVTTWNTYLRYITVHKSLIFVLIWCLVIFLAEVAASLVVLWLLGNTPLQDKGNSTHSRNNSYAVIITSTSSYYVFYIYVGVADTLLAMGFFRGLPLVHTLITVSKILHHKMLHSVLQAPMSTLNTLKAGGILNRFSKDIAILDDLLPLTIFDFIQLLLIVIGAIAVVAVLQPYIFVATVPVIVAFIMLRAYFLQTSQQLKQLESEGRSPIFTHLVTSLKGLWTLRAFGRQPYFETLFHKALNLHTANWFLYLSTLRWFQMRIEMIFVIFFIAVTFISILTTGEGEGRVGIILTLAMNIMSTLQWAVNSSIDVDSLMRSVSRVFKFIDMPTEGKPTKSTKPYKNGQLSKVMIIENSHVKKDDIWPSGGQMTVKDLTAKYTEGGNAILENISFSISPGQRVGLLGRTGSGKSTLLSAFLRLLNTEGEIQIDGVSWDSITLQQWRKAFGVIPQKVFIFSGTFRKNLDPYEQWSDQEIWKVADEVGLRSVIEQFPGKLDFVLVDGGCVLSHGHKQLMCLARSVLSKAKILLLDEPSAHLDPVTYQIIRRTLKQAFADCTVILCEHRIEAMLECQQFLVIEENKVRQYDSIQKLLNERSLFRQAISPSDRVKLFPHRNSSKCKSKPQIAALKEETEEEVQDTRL

Compound | CHIP-mediated CFTR ubiquitilation | abundance of plasma membrane-associated SQSTM1/p62 | overall abundance of PM-associated CFTR (after 24 h of challenge) | effect on P31-43-induced reduction of PM-associated CFTR
α-gliadin peptide LGQQQPFPPQQPY (SEQ ID 1), induces an enterocyte stress response (P31-43 sequence of alpha-gliadin) | promoted | increased the abundance | reduction of the overall abundance of PM-associated CFTR | –
CC(C)(C)c1cc(C(C)(C)C)c(NC(=O)c2c[nH]c3ccccc3c2=O)cc1O [VX-770, N-(2,4-di-tert-butyl-5-hydroxyphenyl)-4-oxo-1,4-dihydroquinoline-3-carboxamide] | – | – | – | counteracted
